Reference: patent publication US11795488B2, “Methods for enzymatic peptide ligation” (NANYANG TECHNOLOGICAL UNIVERSITY, priority 2016, dated 2023)
“And” between values parts separate entries of the source, which are not always exact repeats. Equal values may be shown once.

Legend:
[1] = tested on: peptide substrate "[…]" (SEQ ID NO: 18); experiment: Peptide cyclization assay, kinetic analysis (HPLC/MS); format: biochemical; conditions: cyclization of GLPVSTKPVATRNGL, 37° C., enzyme 700 nM
Protocol: Native and modified amino acids were purchased from Sigma-Aldrich (USA). All peptides used in this manuscript were synthesized in-house using the solid-phase method and HPLC purified. Cyclization assays were performed in 50-μl reaction mixtures containing 20 mM phosphate buffer, ligases (5 to 700 nM) and peptide substrates (10 to 300 μM). Each reaction was performed in triplicate at 37° C. and quenched by adding 5 μl of 1 M HCl solution. The peptides were separated by using a reversed-phase C18 analytical column (150×2.1 mm, Vydac) with a linear gradient from 10% to 50% acetonitrile over 15 min on a Nexera UHPLC system (Shimadzu). For kinetic analysis, the concentrations of WT OaAEP1, mutant OaAEP1, and butelase 1 were fixed at 700 nM, 50 nM, and 20 nM, respectively. The cyclization velocities were calculated by converting the HPLC-peak areas of remained linear precursors or the cyclized products into concentrations. The identity of each HPLC peak was analyzed by MALDI-TOF MS (ABI 4800 MALDI TOF/TOF). The velocities were input into GraphPad Prism (GraphPad Software, San Diego) to obtain the Michaelis-Menten curve and the kinetic parameters (kcat and Km). Comparison for the cyclization efficiency of various OaAEP1 mutants were performed in a volume of 20 μl of the reaction mixture and analyzed by MALDI-TOF MS after 10 mins or 1 hour ligation reaction.
The peptide cyclization activity of mature OaAEP1 was then analyzed using MS and the peptide substrate “[…]” (SEQ ID NO: 18) (FIG. 5A). The turn-over rate (kcat) for OaAEP1 is 0.052 s^−1, a value in good agreement with the previous report (Harris, K. S., et al., Nat Commun, 2015. 6: p. 10199). Likewise, the cyclization activity of butelase 1 extracted from plant was measured using the 15 residues peptide “[…]” (SEQ ID NO: 19) (FIG. 5A) leading to a kcat about 90 times faster than OaAEP1 b.

[2] = tested on: ubiquitin and SNAP tag protein; experiment: Ligation of two well-folded proteins; format: biochemical
Protocol: (a) Fluorescence detection using 02 benzylcytosine-Alexa647 of the SNAP protein and SDS PAGE analysis with Comassie blue staining detection of the protein substrate and ligated products. The reaction is schematically depicted as inset. Cys247Ala ligates well folded protein well. […] (b) As little as 30 nM Cys247Ala catalyze ligation of 100 μM Ubiquitin and 500 μM biotin labelled peptide efficiently in 30 min, at room temperature, in pH 7.4 PBS buffer.
The ability of Cys247Ala to ligate ubiquitin with a peptide was first tested. The three residues“Asn-Gly-Leu” were added to the C-terminus of ubiquitin to make it recognizable by Cys247Ala. Another peptide having N-terminal residues GlyLeu was used as the add-on component. At a protein: peptide molar ratio of 1:5, Cys247Ala catalyzed the ligation of more than 90% ubiquitin with the peptide within 10 min (FIG. 6). An amount of 30 nM of Cys247Ala was enough for the reaction compared to 10-30 μM of sortase A typically required to perform productive ligations. […] Ubiquitin having the same “Asn-Gly-Leu” modification at its C-terminal end and a N-terminal modified SNAP (NEB) tag protein were used as substrates. […] Protein ligation can be performed within minutes at neutral pH and at room temperature.

OaAEP1 [3] = experiment: Self-activation (acid-induced self-cleavage) of OaAEP1 and mutants, SDS PAGE; format: biochemical, Oldenlandia affinis; conditions: for self-activation (auto-activation): acidic pH
Protocol: To self-activate OaAEP1, 1 mM EDTA and 0.5 mM Tris (2-carboxyethyl) phosphine hydrochloride were added to the immature protein and the pH of the solution was adjusted to 4 with glacial acetic acid. Fractions containing the protein (as analyzed by SDS-PAGE) were pooled and then incubated for 3 to 16 hours at room temperature or 37° C. Protein precipitation at this pH allowed removal of the bulk of the contaminating proteins by centrifugation. Activated proteins were concentrated by ultracentrifugation using a 50 kDa cutoff concentrator (Sartorius) and stored at −80° C.
OaAEP1 was cloned and expressed in E. coli as an ubiquitin fusion protein as reported earlier (FIG. 2) (Harris, K. S., et al., Nat Commun, 2015. 6: p. 10199). Using ion exchange and size exclusion chromatography (SEC), sufficient amounts of pure protein suitable for enzymatic and structural analysis were obtained (FIG. 2B). At the neutral pH of purification (pH=7.4), OaAEP1 was mainly present as a heterodimer, where both monomers are in their zymogenic form, but only one monomer had retained in addition the ubiquitin and N-terminal His-tag, while the fusion moiety was cleaved in the other monomer (labeled as “His-Ub-AEP-FL” and “AEP-FL” in FIG. 2B and FIG. 2C). This heterodimer was subjected to crystallization trials for structural studies (see below). In agreement with reference (Harris, K. S., et al., Nat Commun, 2015. 6: p. 10199), activation of OaAEP1 was optimum for pH values in the range of 3.4-4.0 (FIG. 2D). Following activation, OaAEP1 converts to a monomer in solution according to SEC analysis (“AEP-holo” in FIG. 2C). To test the ability of the protein to be activated in trans, the catalytic residue Cys217 was mutated into Ser217.
Since the crystallization conditions are compatible with OaAEP1 activation, the present crystal structure is likely to have captured one of the conformational states occurring along the activation pathway. To determine whether Gln347 belongs to the segment recognized and cleaved during self-activation, mutagenesis experiments targeting region 346-351 of the OaAEP1 protein were performed (FIG. 4C). The role of Gln347 in OaAEP1 auto-activation was particularly assessed by mutating this residue to Ala, and whether enzyme activation was abolished was examined. Only little impact was found on the mutant enzyme activation (FIG. 4C). Residues Asn346, Asp349 and Asp351 that are next to Gln347 were then targeted. […] Thus, trans-activation requires the presence of at least one of the four Asx/Gln residues (with a slight preference for Asp349 or Asp351) found in this segment of the linker.

OaAEP1 [4] = experiment: Trans-activation of inactive mutants by wild type OaAEP1; format: biochemical, Oldenlandia affinis
From the text: (a) Schematic illustration of the His-Ub-OaAEP1 construct used with the boundaries of the three regions of the protein indicated and the deduced activation segment. 6-His tag and Ubiquitin tag followed by OaAEP1 (24-474) was synthesized and inserted into pET28b vector. After Ni-NTA affinity purification, about half of Ub-AEP-FL lost the N-terminal fusion tags and was purified in AEP-FL form (53-474), which was eventually crystallized. The enzymatic active form of OaAEP1b, AEP-holo (53-347/351) is the acidic induced self-cleavage product of AEP-FL, which lost the C-terminal auto inhibitory cap domain. (b) SDS PAGE analysis of fractions obtained over the course of chromatographic purification and of dissolved crystals. (c) Size-exclusion chromatography profiles of OaAEP1 before and after activation showing Ub-AEP-FL and AEP-FL heterodimer and the AEP-holo monomer. The elution volumes of standard proteins are indicated for comparison. (d) SDS PAGE analysis of OaAEP1 pH-dependent activation. The activation was performed for 3 hours, and the peak of activation is in between pH 3.4 to 4.
OaAEP1 was cloned and expressed in E. coli as an ubiquitin fusion protein as reported earlier (FIG. 2) (Harris, K. S., et al., Nat Commun, 2015. 6: p. 10199). Using ion exchange and size exclusion chromatography (SEC), sufficient amounts of pure protein suitable for enzymatic and structural analysis were obtained (FIG. 2B). […]
Since the crystallization conditions are compatible with OaAEP1 activation, the present crystal structure is likely to have captured one of the conformational states occurring along the activation pathway. […] The role of Gln347 in OaAEP1 auto-activation was particularly assessed by mutating this residue to Ala, and whether enzyme activation was abolished was examined. […]

[5] = molecular target: the molecule itself; experiment: size exclusion chromatography (self-association)

B1: OaAEP1: wild type asparaginyl endopeptidase from Oldenlandia affinis, SEQ ID NO:3, weak peptide cyclase (protein, listed as Ovaloparmena affinis)
chain: MVRYLAGAVLLLVVLSVAAAVSGARDGDYLHLPSEVSRFFRPQETNDDHGEDSVGTRWAVLIAGSKGYANYRHQAGVCHAYQILKRGGLKDENIVVFMYDDIAYNESNPRPGVIINSPHGSDVYAGVPKDYTGEEVNAKNFLAAILGNKSAITGGSGKVVDSGPNDHIFIYYTDHGAAGVIGMPSKPYLYADELNDALKKKHASGTYKSLVFYLEACESGSMFEGILPEDLNIYALTSTNTTESSWCYYCPAQENPPPPEYNVCLGDLFSVAWLEDSDVQNSWYETLNQQYHHVDKRISHASHATQYGNLKLGEEGLFVYMGSNPANDNYTSLDGNALTPSSIVVNQRDADLLHLWEKFRKAPEGSARKEEAQTQIFKAMSHRVHIDSSIKLIGKLLFGIEKCTEILNAVRPAGQPLVDDWACLRSLVGTFETHCGSLSEYGMRHTRTIANICNAGISEEQMAEAASQACASIP
[1]
  turn-over rate (kcat): 0.052 s⁻¹
[2]
  protein ligation activity (control ligation experiments): but not with the OaAEP1 wild type construct
[2]; 5 μM SNAP tag, 100 nM Cys247Ala, 4000 nM wild type OaAEP1b
  ligation of SNAP tag protein with Ubiquitin: not
OaAEP1 [3]; activation for 3 hours
  pH optimum of activation: 3.4-4.0 pH and 3.4 to 4 pH

B2: Cys217Ala (protein)
chain: MVRYLAGAVLLLVVLSVAAAVSGARDGDYLHLPSEVSRFFRPQETNDDHGEDSVGTRWAVLIAGSKGYANYRHQAGVCHAYQILKRGGLKDENIVVFMYDDIAYNESNPRPGVIINSPHGSDVYAGVPKDYTGEEVNAKNFLAAILGNKSAITGGSGKVVDSGPNDHIFIYYTDHGAAGVIGMPSKPYLYADELNDALKKKHASGTYKSLVFYLEAAESGSMFEGILPEDLNIYALTSTNTTESSWCYYCPAQENPPPPEYNVCLGDLFSVAWLEDSDVQNSWYETLNQQYHHVDKRISHASHATQYGNLKLGEEGLFVYMGSNPANDNYTSLDGNALTPSSIVVNQRDADLLHLWEKFRKAPEGSARKEEAQTQIFKAMSHRVHIDSSIKLIGKLLFGIEKCTEILNAVRPAGQPLVDDWACLRSLVGTFETHCGSLSEYGMRHTRTIANICNAGISEEQMAEAASQACASIP
OaAEP1 [3]
  self-activation (auto-activation): devoid of self-activation activity
OaAEP1 [4]
  activation in trans by wild type OaAEP1: trans-cleavage and activation of most of the AEP-FL Cys217Ala after 18 hours

B3: Cys217Ser (protein)
chain: MVRYLAGAVLLLVVLSVAAAVSGARDGDYLHLPSEVSRFFRPQETNDDHGEDSVGTRWAVLIAGSKGYANYRHQAGVCHAYQILKRGGLKDENIVVFMYDDIAYNESNPRPGVIINSPHGSDVYAGVPKDYTGEEVNAKNFLAAILGNKSAITGGSGKVVDSGPNDHIFIYYTDHGAAGVIGMPSKPYLYADELNDALKKKHASGTYKSLVFYLEASESGSMFEGILPEDLNIYALTSTNTTESSWCYYCPAQENPPPPEYNVCLGDLFSVAWLEDSDVQNSWYETLNQQYHHVDKRISHASHATQYGNLKLGEEGLFVYMGSNPANDNYTSLDGNALTPSSIVVNQRDADLLHLWEKFRKAPEGSARKEEAQTQIFKAMSHRVHIDSSIKLIGKLLFGIEKCTEILNAVRPAGQPLVDDWACLRSLVGTFETHCGSLSEYGMRHTRTIANICNAGISEEQMAEAASQACASIP
OaAEP1 [3]
  activation and ligase activity of active site mutant: only displayed background level activation and ligase activity
OaAEP1 [4]
  activation in trans by wild type OaAEP1: could be rescued in trans by addition of only 10% of wild type OaAEP1

B4: Asn346Ala-Gln347Ala-Asp349Ala-Asp351Ala (protein)
chain: MVRYLAGAVLLLVVLSVAAAVSGARDGDYLHLPSEVSRFFRPQETNDDHGEDSVGTRWAVLIAGSKGYANYRHQAGVCHAYQILKRGGLKDENIVVFMYDDIAYNESNPRPGVIINSPHGSDVYAGVPKDYTGEEVNAKNFLAAILGNKSAITGGSGKVVDSGPNDHIFIYYTDHGAAGVIGMPSKPYLYADELNDALKKKHASGTYKSLVFYLEACESGSMFEGILPEDLNIYALTSTNTTESSWCYYCPAQENPPPPEYNVCLGDLFSVAWLEDSDVQNSWYETLNQQYHHVDKRISHASHATQYGNLKLGEEGLFVYMGSNPANDNYTSLDGNALTPSSIVVAARAAALLHLWEKFRKAPEGSARKEEAQTQIFKAMSHRVHIDSSIKLIGKLLFGIEKCTEILNAVRPAGQPLVDDWACLRSLVGTFETHCGSLSEYGMRHTRTIANICNAGISEEQMAEAASQACASIP
OaAEP1 [3]
  self-activation (auto-activation): most significantly impaired auto-activation activity
OaAEP1 [3]; listed as A4
  self-activation (auto-activation): more severe loss of function phenotype
OaAEP1 [4]
  activation in trans by wild type OaAEP1: could not be rescued in trans

B5: AEP-holo (activated form of OaAEP1, without the C-terminal cap domain) (enzyme)
chain: SVGTRWAVLIAGSKGYANYRHQAGVCHAYQILKRGGLKDENIVVFMYDDIAYNESNPRPGVIINSPHGSDVYAGVPKDYTGEEVNAKNFLAAILGNKSAITGGSGKVVDSGPNDHIFIYYTDHGAAGVIGMPSKPYLYADELNDALKKKHASGTYKSLVFYLEACESGSMFEGILPEDLNIYALTSTNTTESSWCYYCPAQENPPPPEYNVCLGDLFSVAWLEDSDVQNSWYETLNQQYHHVDKRISHASHATQYGNLKLGEEGLFVYMGSNPANDNYTSLDGNALTPSSIVVNQRDAD
notes: also called mature OaAEP1
[5]
  binding result: no binding
